In patent publication US20250154240A1 (CHIOME BIOSCIENCE, published 2025):
Where a chain is given by its changes, count along the chain named.

T1: human CXCL1 protein (human, UniProt P09341 35-107)
T1 construct: also called HuCXCL1
T1 sequence: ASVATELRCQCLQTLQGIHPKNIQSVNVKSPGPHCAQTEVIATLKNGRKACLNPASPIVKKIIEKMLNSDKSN

B1: mh5A-5E11 VH1/VL (antibody, V domains shown)
VH: QVQLQQSGAELVRPGSSVKISCKASGYAFSDYWMNWVKQRPGQGLEWIGQIYPGSGDTNYNGKFKGKGTLTADKSSSTAYMQLNSLTSEDSAVYFCARERDYDVAMDYWGQGTSVTVSS
VL: DIQMTQSPSSLSASLGGKVTITCKASQDINKYIAWFQHKPGKGPRLVIHYTSILQPGIPSRFSGVGSGRDYSFSIRNLEPEDIATYYCLQYDNLPWTFGGGTKLEIK
B2: mh5A-5E11 VH2/VL (antibody, V domains shown)
VH: B1 VH with S55E
VL: B1 VL
B3: mh5A-5E11 VH3/VL (antibody, V domains shown)
VH: B1 VH with S55D, G56A
VL: B1 VL
B4: mh5A-5E11 VH4/VL (antibody, V domains shown)
VH: B1 VH with S55D, N61S
VL: B1 VL
B5: mh5A-5E11 VH5/VL (antibody, V domains shown)
VH: B1 VH with S55D, G62A
VL: B1 VL
B6: mh5A-5E11 VH6/VL (antibody, V domains shown)
VH: B1 VH with N61S
VL: B1 VL
B7: mh5A-5E11 VH8/VL (antibody, V domains shown)
VH: B1 VH with S55E, N61S
VL: B1 VL
B8: mh5A-5E11 VH9/VL (antibody, V domains shown)
VH: B1 VH with S55E, G62A
VL: B1 VL
B9: mh5A-5E11 VH10/VL (antibody, V domains shown)
VH: B1 VH with S55D, G56A, N61S
VL: B1 VL
B10: mh5A-5E11 VH11/VL (antibody, V domains shown)
VH: B1 VH with S55D, G56A, G62A
VL: B1 VL
B11: mh4A-2F7 VH/VL2 (antibody, V domains shown)
VH: QVTLKESGPGILKPSQTLSLTCSFSGFSLSTSGMGVDWIRQPSGKGLEWLAHIWWDDDKYYNPSLKSQLTISKDTSRNQVFLKITSVDTADTATYYCARSYGYDMDYYAMDYWGQGTSVTVSS
VL: DIQMTQSPSSLSASLGERVSLTCRASQEISGYLSWLQQKPDGTIKRLIYAASTLESGVPKRFSGSRSGSDYSLTISSLESEDFADYYCLQYASYPPWTFGGGTKLEIK
B12: mh4A-2F7 VH/VL3 (antibody, V domains shown)
VH: B11 VH
VL: B11 VL with E55D, S56A
B13: 028-8-12 VH1/VL (antibody, V domains shown)
VH: EVQLLESGGGLVQPGGSLRLSCAASGFTFSELSMSWVRQAPGKGLEWVSAISGSGGSTYYASSVKGRFTISRDNSKNTLYLQMNSLRAEDTAVYYCAREGGRLEPYYYYYAMDVWGQGTPVTVSS
VL: DIQMTQSPSSLSASVGDRVTITCRASQSISDNLHWYQQKPGKAPKLLIYDASNLESGVPSRFSGSGSGTDFTLTINSLQPEDFATYYCQQYYSTPLTFGQGTKLEIK
notes: Amino acid-modified human antibody
B14: 028-8-12 VH2/VL (antibody, V domains shown)
VH: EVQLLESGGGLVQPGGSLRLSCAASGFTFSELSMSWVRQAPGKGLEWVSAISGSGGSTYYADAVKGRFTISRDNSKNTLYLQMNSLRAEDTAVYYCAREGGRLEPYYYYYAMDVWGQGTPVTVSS
VL: B13 VL
notes: as for B13
B15: 028-8-12 VH2/VL1 (antibody, V domains shown)
VH: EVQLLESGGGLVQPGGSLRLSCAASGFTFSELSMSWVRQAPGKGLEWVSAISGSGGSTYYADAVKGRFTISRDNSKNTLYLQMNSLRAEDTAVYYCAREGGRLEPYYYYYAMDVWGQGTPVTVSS
VL: B13 VL with N76S
notes: as for B13
B16: 028-8-12 VH/VL1 (antibody, V domains shown)
VH: B13 VH with S62D
VL: B13 VL with N76S
notes: as for B13
B17: mh1A-7H10_VH1/VL (antibody, V domains shown)
VH: QVQLKESGPVLVAPSQSLSITCSVSGFSSTTYGVHWVRQPPGQGLEWLGVIWAGGSTNYNAALMSRLSISKDNSKSQVFLKMNSLQTDDTAMYYCATQYHYPFAYWGQGTLVTVSA
VL: NIVMTQSPKSMSMSVGERVTLSCKASENVGIYVSWYQQKPEQSPKLMIYGASNRNTGVPDRFTGSGSATDFTLTISSVQAEDLADYYCGQSYSYPLTFGAGTKLELK
B18: Hu1A-7H10 VH1/VL1 (antibody, V domains shown)
VH: QVTLKESGPVLVKPTETLTLTCTVSGFSSTTYGVHWVRQPPGKALEWLGVIWAGGSTNYNAALMSRLTISKDTSKSQVVLTMTNMDPVDTATYYCATQYHYPFAYWGQGTLVTVSS
VL: DIQMTQSPSSLSASVGDRVTITCKASENVGIYVSWYQQKPGKAPKLMIYGASNRNTGVPSRFSGSGSGTDFTLTISSLQPEDFATYYCGQSYSYPLTFGGGTKVEIK
B19: Hu1A-7H10 VH1/VL2 (antibody, V domains shown)
VH: B18 VH
VL: B18 VL with G68A
notes: Humanized antibody
B20: Hu1A-7H10 VH2/VL1 (antibody, V domains shown)
VH: B18 VH with T73N
VL: B18 VL
notes: Humanized antibody
B21: Hu1A-7H10 VH2/VL2 (antibody, V domains shown)
VH: B18 VH with T73N
VL: B18 VL with G68A
notes: Humanized antibody
B22: mh5A-5E11_VH7/VL (antibody, V domains shown)
VH: B1 VH with G62A
VL: B1 VL
B23: Hu5A-5E11 VH1/VL2 (antibody, V domains shown)
VH: QVQLVQSGAEVKKPGSSVKVSCKASGYAFSDYWMNWVRQAPGQGLEWIGQIYPGSGDTNYNAKFKGKGTITADKSTSTAYMELSSLRSEDTAVYYCARERDYDVAMDYWGQGTTVTVSS
VL: DIQMTQSPSSLSASVGDRVTITCKASQDINKYIAWFQQKPGKAPKLVIHYTSILQPGVPSRFSGVGSGTDYTFTISSLQPEDIATYYCLQYDNLPWTFGGGTKVEIK
notes: Humanized antibody
B24: Hu5A-5E11 VH2/VL1 (antibody, V domains shown)
VH: B23 VH with I70L
VL: B23 VL with V65S
notes: Humanized antibody
B25: Hu5A-5E11 VH2/VL2 (antibody, V domains shown)
VH: B23 VH with I70L
VL: B23 VL
notes: Humanized antibody

Target: T1, human CXCL1 protein
Test: antigen-immobilized ELISA

Binder	binding result
B1	binds
B2	binds
B3	binds
B4	binds
B5	binds
B6	binds
B7	binds
B8	binds
B9	binds
B10	binds
B11	binds
B12	binds
B13	binds
B14	binds
B15	binds
B16	binds

Target: T1, human CXCL1 protein
Test: antigen-immobilized ELISA, HuCXCL1 on the plate, absorbance (upper left panel)

Binder	EC50 (read off the curve) [ng/mL]
B17	~20
B18	~20
B19	~20
B20	~20
B21	~20

Target: T1, human CXCL1 protein
Test: antigen-immobilized ELISA, HuCXCL1 on the plate, absorbance (lower left panel)

Binder	EC50 (read off the curve) [ng/mL]
B22	~20
B23	~20
B24	~20
B25	~20
